According to publication PMC3834835, “Crystal structure of RuvC resolvase in complex with Holliday junction substrate” (Nucleic Acids Research, 2013):
Changes are numbered by the printed parent chain.

Legend:
[1] = biological target: Tt-RuvC as crystallised in complex with a synthetic Holliday junction (T. thermophilus) (UniProt Q5SJC4); test: crystal structure; Tt-RuvC with synthetic Holliday junction (oligonucleotides J221 and J222), crystals from 0.3-0.5 M ammonium phosphate; molecular replacement, 3.75 Å; asymmetric unit holds a RuvC dimer and one HJ
Tt-RuvC E70Q M108C = biological target: T1, Tt-RuvC E70Q M108C (Thermus thermophilus, UniProt Q5SJC4 1-166, E70Q;M108C); test: site-specific thiol cross-linking; 5 mM Mg2+, 100 mM KCl; Cross-linking: 100 mM NaCl, 10 mM HEPES pH 7.0, 0.5 mM DTT, 15% glycerol, 5 mM MgCl2 (+100 mM KCl for backbone thiols), protein:DNA 1:1, 37 C 2.5 h then 25 C overnight; conditions: protein: recombinant; tags: N-terminal His-tag; chain copies: 2; Holliday junction of 4 strands, immobile
T1 sequence: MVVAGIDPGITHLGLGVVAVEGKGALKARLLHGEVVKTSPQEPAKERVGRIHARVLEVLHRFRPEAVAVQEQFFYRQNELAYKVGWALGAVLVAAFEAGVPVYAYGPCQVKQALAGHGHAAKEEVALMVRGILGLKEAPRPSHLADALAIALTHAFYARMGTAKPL

Tt-RuvC E70Q T11C [2] = biological target: T2, Tt-RuvC E70Q T11C (Thermus thermophilus, UniProt Q5SJC4 1-166, E70Q;T11C); test: site-specific thiol cross-linking; 5 mM Mg2+, 100 mM KCl; most efficient; Cross-linking: 100 mM NaCl, 10 mM HEPES pH 7.0, 0.5 mM DTT, 15% glycerol, 5 mM MgCl2 (+100 mM KCl for backbone thiols), protein:DNA 1:1, 37 C 2.5 h then 25 C overnight; conditions: protein: recombinant; tags: N-terminal His-tag; chain copies: 2; Holliday junction of 4 strands, immobile
T2 sequence: T1 sequence with T11C, C108M

Tt-RuvC E70Q T11C [3] = biological target: T2, Tt-RuvC E70Q T11C; test: site-specific thiol cross-linking; 5 mM Mg2+, 100 mM KCl; single modification; Cross-linking: 100 mM NaCl, 10 mM HEPES pH 7.0, 0.5 mM DTT, 15% glycerol, 5 mM MgCl2 (+100 mM KCl for backbone thiols), protein:DNA 1:1, 37 C 2.5 h then 25 C overnight; conditions: protein: recombinant; tags: N-terminal His-tag; chain copies: 2; Holliday junction of 4 strands
Tt-RuvC E70Q R140C = biological target: T3, Tt-RuvC E70Q R140C (Thermus thermophilus, UniProt Q5SJC4 1-166, E70Q;R140C); test: site-specific thiol cross-linking; 5 mM Mg2+, 100 mM KCl; Cross-linking: 100 mM NaCl, 10 mM HEPES pH 7.0, 0.5 mM DTT, 15% glycerol, 5 mM MgCl2 (+100 mM KCl for backbone thiols), protein:DNA 1:1, 37 C 2.5 h then 25 C overnight; conditions: protein: recombinant; tags: N-terminal His-tag; chain copies: 2; Holliday junction of 4 strands, immobile
T3 sequence: T1 sequence with C108M, R140C

Tt-RuvC E70Q P40C [4] = biological target: T4, Tt-RuvC E70Q P40C (Thermus thermophilus, UniProt Q5SJC4 1-166, E70Q;P40C); test: site-specific thiol cross-linking; 5 mM Mg2+, 100 mM KCl; most efficient; Cross-linking: 100 mM NaCl, 10 mM HEPES pH 7.0, 0.5 mM DTT, 15% glycerol, 5 mM MgCl2 (+100 mM KCl for backbone thiols), protein:DNA 1:1, 37 C 2.5 h then 25 C overnight; conditions: protein: recombinant; tags: N-terminal His-tag; chain copies: 2; Holliday junction of 4 strands, immobile
T4 sequence: T1 sequence with P40C, C108M

Tt-RuvC E70Q P40C [5] = biological target: T4, Tt-RuvC E70Q P40C; test: site-specific thiol cross-linking; 5 mM Mg2+, 100 mM KCl; single modification; Cross-linking: 100 mM NaCl, 10 mM HEPES pH 7.0, 0.5 mM DTT, 15% glycerol, 5 mM MgCl2 (+100 mM KCl for backbone thiols), protein:DNA 1:1, 37 C 2.5 h then 25 C overnight; conditions: protein: recombinant; tags: N-terminal His-tag; chain copies: 2; Holliday junction of 4 strands
Tt-RuvC E70Q = biological target: T5, Tt-RuvC E70Q (Thermus thermophilus, UniProt Q5SJC4 1-166, E70Q); test: X-ray crystallography (3.75 A); 0.3-0.5 M ammonium phosphate; Cross-linking: 100 mM NaCl, 10 mM HEPES pH 7.0, 0.5 mM DTT, 15% glycerol, 5 mM MgCl2 (+100 mM KCl for backbone thiols), protein:DNA 1:1, 37 C 2.5 h then 25 C overnight; conditions: protein: recombinant; tags: none (N-terminal His-tag removed with PreScission protease); chain copies: 2; Holliday junction of 2 strands, TTT loops on two arms
T5 sequence: T1 sequence with C108M

Tt-RuvC E70Q L80C = biological target: T6, Tt-RuvC E70Q L80C (Thermus thermophilus, UniProt Q5SJC4 1-166, E70Q;L80C); test: site-specific thiol cross-linking; 5 mM Mg2+; Cross-linking: 100 mM NaCl, 10 mM HEPES pH 7.0, 0.5 mM DTT, 15% glycerol, 5 mM MgCl2 (+100 mM KCl for backbone thiols), protein:DNA 1:1, 37 C 2.5 h then 25 C overnight; conditions: protein: recombinant, tags: N-terminal His-tag, chain copies: 2, Holliday junction of 2 strands, TTT loops
T6 sequence: T1 sequence with L80C, C108M

[6] = biological target: the molecule itself; test: crystal structure; apo Tt-RuvC, crystals from 0.1 M citric acid (pH 3.5) and 1.5 M NaCl; SAD, 1.35 Å; asymmetric unit holds a RuvC dimer
Tt-RuvC E70Q R76C = biological target: T7, Tt-RuvC E70Q R76C (Thermus thermophilus, UniProt Q5SJC4 1-166, E70Q;R76C); test: site-specific thiol cross-linking; 5 mM Mg2+; high efficiency; Cross-linking: 100 mM NaCl, 10 mM HEPES pH 7.0, 0.5 mM DTT, 15% glycerol, 5 mM MgCl2 (+100 mM KCl for backbone thiols), protein:DNA 1:1, 37 C 2.5 h then 25 C overnight; conditions: protein: recombinant; tags: N-terminal His-tag; chain copies: 2; Holliday junction of 2 strands, TTT loops, 2 bp homology core
T7 sequence: T1 sequence with R76C, C108M

Tt-RuvC E70Q Q77C = biological target: T8, Tt-RuvC E70Q Q77C (Thermus thermophilus, UniProt Q5SJC4 1-166, E70Q;Q77C); test: as above; conditions: protein: recombinant; tags: N-terminal His-tag; chain copies: 2; Holliday junction of 2 strands, TTT loops, 2 bp homology core
T8 sequence: T1 sequence with Q77C, C108M

## Tt-RuvC as crystallised in complex with a synthetic Holliday junction (from UniProt Q5SJC4 1-166) (enzyme)
[1]
  stoichiometry N: 2

B1: HJ-28bb (structured_DNA)
DNA 1: GACGGCCTCGCAATCGACTATGACCGAGCACGCGAGATGT
DNA 2: ACATCTCGCGTGCTCGGTCATTCTGCAGATGCGGAGTGAA
DNA 3: TTCACTCCGCATCTGCAGATTCTGGCTGTGGCGTGTTTCT
DNA 4: AGAAACACGCCACAGCCAGAAAGTCGATTGCGAGGCCGTC
modifications: thiol tether on phosphate after nt 24 of strands 2 and 4
Tt-RuvC E70Q M108C
  binding result: binds
Tt-RuvC E70Q T11C [2]
  binding result: binds

B2: HJ-29bb-h (structured_DNA)
DNA 1: B1 DNA 1 with G16A, A17G
DNA 2: B1 DNA 2
DNA 3: B1 DNA 3 with C16A, A17C
DNA 4: B1 DNA 4 with T24C, C25T
modifications: thiol tether on phosphate after nt 25 of strand 4 only; the table lists one shared single B strand (S19) for HJ-28/29
Tt-RuvC E70Q T11C [3]
  binding result: binds

B3: HJ-3bb (structured_DNA)
DNA 1: B1 DNA 1 with A13T, A17G
DNA 2: B1 DNA 2 with T24G, G28A, A29G
DNA 3: B1 DNA 3 with T12C, C13T, A17C
DNA 4: B1 DNA 4 with T24C, T28A
modifications: thiol tether on phosphate after nt 13 of strands 1 and 3
Tt-RuvC E70Q R140C
  binding result: binds

B4: HJ-29bb (structured_DNA)
DNA 1: B1 DNA 1 with G16A, A17G
DNA 2: B1 DNA 2 with T24G, G25T
DNA 3: B1 DNA 3 with C16A, A17C
DNA 4: B1 DNA 4 with T24C, C25T
modifications: thiol tether on phosphate after nt 25 of strands 2 and 4
Tt-RuvC E70Q M108C
  binding result: binds
Tt-RuvC E70Q P40C [4]
  binding result: binds

B5: HJ-28bb-h (structured_DNA)
DNA 1: B1 DNA 1
DNA 2: B1 DNA 2
DNA 3: B1 DNA 3
DNA 4: B1 DNA 4
modifications: thiol tether on phosphate after nt 24 of strand 4 only
Tt-RuvC E70Q P40C [5]
  binding result: binds

B6: HJ J221/J222 (structured_DNA)
DNA 1: CAATCGGCTTTGACCTTTGGTCAATCGGCAGAT
DNA 2: ATCTGCCGATTCTGGTTTCCAGAAAGCCGATTG
Tt-RuvC E70Q
  binding result: binds

B7: HJ-26-h (structured_DNA)
DNA 1: B6 DNA 1 with T10A, A24T, C26G
DNA 2: B6 DNA 2 with G8C, G22C
modifications: thiol on guanine 26 of one strand
Tt-RuvC E70Q L80C
  binding result: binds

B8: HJ-8-h (structured_DNA)
DNA 1: B6 DNA 1 with C8G, T10A, A24T
DNA 2: B6 DNA 2 with C20T, G26C
modifications: thiol on guanine 8 of one strand
Tt-RuvC E70Q L80C
  binding result: binds

B9: RuvC protein from T. thermophilus (Tt-RuvC), unliganded (apo) crystal form (enzyme)
chain: T1 sequence with Q70E, C108M
modifications: selenomethionine-substituted protein (SAD data)
notes: RuvC Holliday junction resolvase, Thermus thermophilus; No PDB id is printed for the apo structure; also called apo Tt-RuvC; RuvC resolvase; source: E. coli, purified (nickel column, tag cleavage, Mono-S column)
[6]
  stoichiometry N: 2

B10: HJ-25-h (structured_DNA)
DNA 1: CAATCGGCCAAGACCTTTGGTCTTGCGGCAGAT
DNA 2: ATCTGCCGCATATGGTTTCCAGATGGCCGATTG
modifications: thiol on guanine 25 of one strand
Tt-RuvC E70Q L80C; 2 bp homology core
  binding result: binds

B11: HJ-25 (structured_DNA)
DNA 1: B10 DNA 1
DNA 2: B10 DNA 2
modifications: thiol (cysteamine) on position 2 of guanine 25 of both strands
Tt-RuvC E70Q R76C
  binding result: binds
Tt-RuvC E70Q Q77C
  binding result: binds
